Ends that are not written are not given here. * marks the point of attachment. Biotin = O=C1N[C@H]2[C@H](CS[C@H]2CCCCC(=O)*)N1
What was measured:
Experiment in all cases: peptide or protein array; E. coli proteome chip: purified His-tagged proteins printed in duplicate on Fullmoon slides, blocked with 1% BSA; 10 nM N-terminal biotinylated LfcinB with 1% BSA, room temperature, 1 h; detected with DyLight 649-labeled streptavidin, ratio to DyLight 549-labeled anti-His antibody; ProCAT normalisation, local cut-off; triplicate chips
Details in all cases: both partners purified
AroD = biological target: T1, AroD (E. coli K-12, UniProt P05194 1-252)
T1 construct: AroD, E. coli K-12
T1 sequence (looked up): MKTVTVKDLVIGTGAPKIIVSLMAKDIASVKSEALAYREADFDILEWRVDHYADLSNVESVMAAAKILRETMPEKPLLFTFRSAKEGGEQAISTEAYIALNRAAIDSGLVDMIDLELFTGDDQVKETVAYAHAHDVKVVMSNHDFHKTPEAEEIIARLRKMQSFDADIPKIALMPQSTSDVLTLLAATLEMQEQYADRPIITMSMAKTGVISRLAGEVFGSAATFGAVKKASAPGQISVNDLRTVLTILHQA

RplW = RplW (E. coli K-12, UniProt P0ADZ0 1-100)
RfaZ = biological target: T2, RfaZ (E. coli K-12, UniProt P27241 1-283)
T2 construct: RfaZ, E. coli K-12
T2 sequence (looked up): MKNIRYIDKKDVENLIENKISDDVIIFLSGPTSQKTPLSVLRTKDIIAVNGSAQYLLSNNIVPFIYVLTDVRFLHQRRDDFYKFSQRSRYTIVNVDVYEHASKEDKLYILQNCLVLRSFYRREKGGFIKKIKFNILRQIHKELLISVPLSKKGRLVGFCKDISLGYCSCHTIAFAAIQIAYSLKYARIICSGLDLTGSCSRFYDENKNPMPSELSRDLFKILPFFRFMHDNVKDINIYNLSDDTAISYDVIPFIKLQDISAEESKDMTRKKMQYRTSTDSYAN

IlvL = biological target: T3, IlvL (E. coli K-12, UniProt P62522 1-32)
T3 construct: IlvL, E. coli K-12
T3 chain (looked up): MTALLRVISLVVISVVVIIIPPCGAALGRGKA

YcgW = biological target: T4, YcgW (E. coli K-12, UniProt P75987 1-107)
T4 construct: YcgW, E. coli K-12
T4 sequence (looked up): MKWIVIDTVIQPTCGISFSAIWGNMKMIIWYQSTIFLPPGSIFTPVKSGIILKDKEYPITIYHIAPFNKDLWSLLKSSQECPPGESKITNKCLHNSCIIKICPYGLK

YdhS = biological target: T5, YdhS (E. coli K-12, UniProt P77148 1-534)
T5 construct: YdhS, E. coli K-12
T5 sequence (looked up): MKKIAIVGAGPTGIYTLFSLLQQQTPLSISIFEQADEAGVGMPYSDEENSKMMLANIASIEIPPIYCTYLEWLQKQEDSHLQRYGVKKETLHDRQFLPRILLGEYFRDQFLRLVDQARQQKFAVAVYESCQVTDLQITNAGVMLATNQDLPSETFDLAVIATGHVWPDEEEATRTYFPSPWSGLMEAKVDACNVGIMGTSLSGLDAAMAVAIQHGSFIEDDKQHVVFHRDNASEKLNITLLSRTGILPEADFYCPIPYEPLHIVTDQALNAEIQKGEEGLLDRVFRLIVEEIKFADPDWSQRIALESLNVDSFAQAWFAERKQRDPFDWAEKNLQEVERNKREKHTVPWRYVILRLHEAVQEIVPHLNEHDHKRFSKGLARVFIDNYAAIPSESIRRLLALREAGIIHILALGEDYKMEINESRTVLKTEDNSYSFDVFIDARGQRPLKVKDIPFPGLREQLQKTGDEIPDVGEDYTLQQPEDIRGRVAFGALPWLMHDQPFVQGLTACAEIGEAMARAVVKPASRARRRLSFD

[1] = biological target: T6, ribonucleoside-diphosphate reductase 2, β subunit (E. coli K-12, UniProt P37146 1-319)
T6 construct: NrdF, ribonucleoside-diphosphate reductase 2, β subunit, E. coli K-12; no measurement of the oligomer here; also called NrdF

Measured: binding result

T6 sequence (P37146 whole entry): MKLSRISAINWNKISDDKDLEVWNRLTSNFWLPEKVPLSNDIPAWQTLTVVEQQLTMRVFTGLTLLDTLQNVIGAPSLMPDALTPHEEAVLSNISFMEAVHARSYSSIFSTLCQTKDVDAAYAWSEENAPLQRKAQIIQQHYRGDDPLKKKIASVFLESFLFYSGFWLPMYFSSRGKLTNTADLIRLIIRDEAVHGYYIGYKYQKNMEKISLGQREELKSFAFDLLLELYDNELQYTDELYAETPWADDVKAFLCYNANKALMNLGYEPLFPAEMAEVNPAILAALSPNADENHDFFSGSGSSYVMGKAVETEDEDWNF

B1: N-terminal biotinylated Lactoferricin B (peptide, UniProt P24627 36-60, looked up)
peptide: Biotin-FKCRRWQWRMKKLGAPSITCVRRAF
modifications: ends and bridges not checked
notes: lactoferricin B (LfcinB), cationic antimicrobial peptide of 25 amino acids; also called biotinylated LfcinB; biotin-labeled LfcinB; source: bought: Kelowna Inc
binds: AroD | RplW | RfaZ | IlvL | YcgW | YdhS | [1]

— PMC3229523, “Identification of Lactoferricin B Intracellular Targets Using an Escherichia coli Proteome Chip” (PLoS ONE, 2011)
